Among the data in PMC3983052 are percent of AaSR-C-expressing cells bound by DENV-2 virions values, retold here.

The test deals with AaSR-C-Full (full-length A. aegypti scavenger receptor-C with its trans-membrane region, 23-494 aa) (Aedes aegypti). In words: flow cytometry on cells. A general note: In flow cytometry, cells or beads pass a laser one at a time.

Substance “purified inactivated DENV-2 virions (complex)” gave a percent of AaSR-C-expressing cells bound by DENV-2 virions above 90%.
